B1: 3aD3: anti-tau clone, SEQ ID NO: 422 (protein)
scFv: QVQLQESGPSLVKPSQTLSLTCTVSGFSLTSNGVGWVRRAPGKVPEWVGDISSGGKVYGHPALKSRLSITRDTSKSQVSLSVSSVTSEDTAVYYCVRCRDGGVSYGYDSDYWGPGLLVTVSSEGKSSGASGESKVDDQAVVTQPSSVSKSLGQSVSITCSGSSSNVGYGDYVGWFQQVPGSAPKLLIYGVTERASGVPDRFSGSRSGNTATLTISSIQAEDEADYYCASYDDSSGGIFGSGTRLTVLG
modifications: 3aD3 amino acid sequence
B2: CB7: anti-tau clone, SEQ ID NO: 364 (protein)
scFv: QVQLQESGPSLVKPSQTLSLTCTVSGFSLTNYRVGWVRQAPGKALEWVSNIRSGGTTWYNPALKSRLSITADTSKSQVSLSLSSVTTEDTAVYYCARDSSGDLYAYDYWGPGLLVTVSSEGKSSGASGESKVDDQAVLTQPSSVSRSLGQSVSMTCSGSSSNVGYGNYMAWFQQVPGSAPKLLIYGATSRASGVPDRFSGSRSGNTATLTISSLQAEDEADYYCASYDSTSGGVFGSGTRLTVLG
modifications: CB7 amino acid sequence

Assays:
hT40 = hT40 (Homo sapiens, UniProt P10636); assay: Biacore X100 SPR, scAb captured via anti-HuCk, hT40 as analyte; format: binding
Summary of the method: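 Captured scAb on anti-HuCk CM5 surface (flow cell 1 as reference) in HBS-EP+, capture set for theoretical RMax 100 RU; hT40 injected multi-cycle (0.15625–100 nM) or single-cycle (6.25–100 nM), 120 s association, 420 s dissociation, glycine pH 2.0 regeneration. Kinetics and affinity from 1:1 binding model fit.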

[1] = target: hT40, dGA, dGAE and truncated tau fragments/peptides (Homo sapiens, UniProt P10636); assay: Binding ELISA for epitope mapping with truncated tau proteins and biotinylated 13mer peptides; conditions: scAbs used as negative controls in thioflavin T assay; data not shown
human tau and mouse tau = assay: Western blot of WT, L66+/+ and L1+/+ mouse brain homogenates; format: binding; conditions: 20 μg protein, 5-month-old mice
Protocol: Protein equivalent to 20 μg from each brain extract was separated using 4-20% bis-tris gels and run in 1×MES buffer.
A band is detected in each sample (WT, L66^+/+ and L1^+/+) with an apparent molecular weight of approximately 55 kDa. This band most likely corresponds to endogenous mouse tau which is of a similar size. In the L66^+/+ samples, a second band running at approximately 68 kDa is also detected. The presence of numerous other bands indicates proteolytic truncation of tau within brain homogenates.

[2] = system: tau protein in brain homogenate; assay: Capture ELISA on transgenic mouse brain lysates; format: binding; conditions: S1D12 mAb capture; WT, L1, L66+/- and L66+/+
Protocol: Mouse brain lysates were prepared from wildtype, Line 1, Line 66+/+ and Line 66+/− (Melis et al., 2015, all surplus from Charles River, part of study R0144). All animals were female, 7-8 months old except Line 66+/+ which were 5 months old. […] The L1 cDNA construct (FIG. 23) contains human tau cDNA coding for amino acid residues 296-390 with a signal sequence and related sequences in a murine Thy-1 expression cassette. For brain lysate preparation, half brains were sectioned into four and the individual sections were homogenised in 400 μl of ice cold RIPA buffer (Cell signalling Technology) containing protease and phosphatase inhibitors. Total protein concentrations for individual samples were established by BCA-assay and each sample was subsequently diluted to 1 mg/ml for future experiments.
For capture ELISA, 100 µL S1D12 capture mAb was used to coat a nunc 96 well Maxisorp plate at 1 μg/ml and incubated for 1 hour at 37° C. Plate was washed as previously and then blocked for 1 hour at 37° C., in 2% MPBS. Brain homogenate samples (50 ng total protein) from each mouse type were added to the first wells and double diluted across the plate in PBS. These samples were left to incubate at RT for 1 hour. Various detection scAbs encompassing epitopes of interest were then added to the plate at 1 μg/ml and incubated for 1 h at RT. […]

htau40 = htau40 (Homo sapiens, UniProt P10636); assay: Biacore X100 SPR of anti-tau mAbs on immobilised htau40; format: binding; conditions: mAb, Table 27, immobilised hT40
Summary of the method: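 htau40 amine-coupled to a CM5 chip (~250 RU); mAb injected at 0.78–25 nM in HBS-EP+ at 30 μL/min, 120 s association, 600 s dissociation, glycine pH 1.5 regeneration. Kinetics and affinity from 1:1 binding fit with reference-cell subtraction.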

tau fragments in plasma = assay: Capture ELISA on transgenic mouse plasma; format: binding; conditions: detection scAb, Line66 transgenic model
Protocol: Plasma samples from WT, L1, L66+/− and L66^+/+ of various ages (1.5-9 months) were taken as described. Mice were terminally anaesthetized using an overdose of sodium pentobarbital and blood was collected through cardiac puncture through a Plastipak syringe pre-rinsed with heparinised saline heparin (10 U/ml) (Heparin sodium salt; Sigma-Aldrich) and transferred into a plastic vial containing lithium heparin anticoagulant (Sarstedt Ltd.) Blood samples, kept on ice for no more than 30 minutes, were centrifuged to obtain plasma at 2000× g for 5 minutes at 6° C. Plasma samples were stored at −20° C.
For mouse plasma capture ELISA, 100 μL capture mAb was coated to the bottom of a black nunc 96 well ‘maxisorp’ plate at 2.5 μg/ml and incubated for 1 hour at 37° C. After washing and blocking as normal, several known standard solutions were set up in triplicate starting at 20 ng/ml of the desired protein before double diluted in the remaining wells. Mouse samples were added to wells in duplicate with a blank in between each sample group. Line1 plasma was diluted 1:10 before addition to plate to account for its high concentration while other samples were diluted 1:2 to account for potential matrix effects. […] The ELISA was developed using SuperSignal ELISA Femto Substrate (Thermo Scientific) and total luminescence was read on Clariostar Plus plate reader (BMG Labtech). […]

[3] = '3a' and '3b' scAbs, Table 25, hT40

Sequence of hT40 (P10636 1-441 isoform P10636-8): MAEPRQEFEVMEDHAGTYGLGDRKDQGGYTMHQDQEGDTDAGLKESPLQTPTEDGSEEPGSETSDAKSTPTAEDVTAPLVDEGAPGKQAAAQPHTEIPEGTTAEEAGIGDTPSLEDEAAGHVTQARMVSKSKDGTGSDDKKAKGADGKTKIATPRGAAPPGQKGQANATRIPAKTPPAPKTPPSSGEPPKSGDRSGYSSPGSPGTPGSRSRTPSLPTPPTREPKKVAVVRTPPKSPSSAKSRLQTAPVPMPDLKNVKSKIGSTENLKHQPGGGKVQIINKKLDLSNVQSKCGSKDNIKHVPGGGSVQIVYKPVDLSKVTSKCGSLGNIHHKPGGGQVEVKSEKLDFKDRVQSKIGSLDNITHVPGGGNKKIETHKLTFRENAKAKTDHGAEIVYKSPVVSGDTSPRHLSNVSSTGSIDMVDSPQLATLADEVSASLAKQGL
Sequence of htau40 (P10636 1-441 isoform P10636-8): as above
Sequence of hT40, dGA, dGAE and truncated tau fragments/peptides (P10636 614-708): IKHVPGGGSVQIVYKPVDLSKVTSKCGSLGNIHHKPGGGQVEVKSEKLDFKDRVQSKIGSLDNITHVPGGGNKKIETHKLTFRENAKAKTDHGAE

Molecule | ka (hT40; [3]) [M⁻¹ s⁻¹] | kd (hT40; [3]) [s⁻¹] | cross reactivity to dGAE [1] | bands detected in western blot of WT, L66+/+ and L1+/+ brain homogenates (human tau and mouse tau) | ka (hT40; scAb, Table 23, T441 (hT40)) [M⁻¹ s⁻¹] | kd (hT40; scAb, Table 23, T441 (hT40)) [s⁻¹] | tau detection in mouse brain homogenate [2] | ka (htau40) [M⁻¹ s⁻¹] | kd (htau40) [s⁻¹] | cross reaction with endogenous mouse tau protein (tau fragments in plasma)
B1 | 544400 | 0.01038 | no cross reactivity to dGAE | – | – | – | – | – | – | –
B2 | – | – | – | show specificity for human tau | 133400 | 0.0006936 | hT40 tau was specifically detected in L66 samples | 2.568e+06 | 0.009451 | does not cross react with endogenous mouse tau protein
